Reference: patent US20090162360A1 (Hoffmann-La Roche, published 2009)

Assays:
[1] = target: T1, recombinant human IGF-1R on I24 cells (human, UniProt P08069 31-1367); test: cellular FACS IGF-1R-ANGPT2 bridging assay on I24 cells with 2 µg/mL hANGPT2, detection <ANGPT2>mIgG1-Biotin + Streptavidin-PE
T1 construct: whole, on cells; also called IGF-1R in I24 cells; I24 IGF-1R expressing cells (NIH3T3 cells expressing recombinant human IGF-1R)
Protocol: (§1) The assay principle is depicted in FIG. 10.
(§2) Briefly, 5×10E5 I24 cells per FACS tube were incubated with total purified antibody mix and incubated on ice for 1 h (titration 160 μg/ml mix). The respective purified antibodies wildtype <IGF-1R> and <ANGPT2> were applied to the I24 cells as controls. Unbound antibody was washed away with 4 ml ice cold PBS (Gibco)+2% FCS (Gibco), cells were centrifuged (5 min at 400 g) and bound bispecific antibody was detected with 50 μl 2 μg/mL human ANGPT2 (R&D Systems) for 1 h on ice. Subsequently, unbound ANGPT2 was washed away once or twice with 4 ml ice cold PBS (Gibco)+2% FCS (Gibco), cells were centrifuged (5 min at 400 g) and bound ANGPT2 was detected with 50 μl 5 μg/mL <ANGPT2>mIgG1-Biotin antibody (BAM0981, R&D Systems) for 45 min on ice; alternatively, cells were incubated with 50 μl 5 μg/mL mIgG1-Biotin-Isotype control (R&D Systems). Unbound detection antibody was washed away with 4 ml ice cold PBS (Gibco)+2% FCS (Gibco), cells were centrifuged (5 min at 400 g) and bound detection antibody was detected with 50 μl 1:400 Streptavidin-PE conjugate (Invitrogen/Zymed) for 45 min on ice protected from light. Unbound Streptavidin-PE conjugate was washed away with 4 ml ice cold PBS+2% FCS. […]

[2] = target: T2, human ANGPT2 (R&D Systems) (human, UniProt O15123 19-496, limits assumed); test: as above
T2 construct: also called hANGPT2; Ang-2
T2 sequence (looked up): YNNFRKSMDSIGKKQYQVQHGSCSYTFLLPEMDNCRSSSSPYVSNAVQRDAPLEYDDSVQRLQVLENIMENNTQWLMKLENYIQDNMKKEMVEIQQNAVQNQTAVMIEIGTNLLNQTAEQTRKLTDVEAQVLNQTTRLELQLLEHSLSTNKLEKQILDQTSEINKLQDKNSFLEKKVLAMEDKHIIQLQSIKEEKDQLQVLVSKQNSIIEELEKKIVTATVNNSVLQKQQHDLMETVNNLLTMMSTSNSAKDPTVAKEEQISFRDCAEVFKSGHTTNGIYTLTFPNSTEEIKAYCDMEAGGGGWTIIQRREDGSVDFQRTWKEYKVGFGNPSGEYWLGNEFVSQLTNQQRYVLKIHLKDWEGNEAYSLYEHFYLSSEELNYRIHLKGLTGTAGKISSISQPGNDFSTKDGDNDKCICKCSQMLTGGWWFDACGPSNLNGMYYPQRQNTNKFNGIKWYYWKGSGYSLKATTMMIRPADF
Protocol: as §1, §2

B1: monospecific, bivalent <ANGPT2> wildtype antibody (antibody, V domains shown)
VH: EVQLVQSGGGVVQPGRSLRLSCAASGFTFSSYGMHWVRQAPGKGLEWVSYISSSGSTIYYADSVKGRFTISRDNAKNSLYLQMNSLRAEDTAVYYCARDLLDYDILTGYGYWGQGTLVTVSS
VL: not shown
notes: Human IgG1/kappa antibody described in WO 2006/045049; also called wildtype <ANGPT2> antibody; <Ang-2> control antibody
- binding result [1]: no binding

B2: wildtype <IGF-1R> antibody (antibody, V domains shown)
VH: QVELVESGGGVVQPGRSQRLSCAASGFTFSSYGMHWVRQAPGKGLEWVAIIWFDGSSTYYADSVRGRFTISRDNSKNTLYLQMNSLRAEDTAVYFCARELGRRYFDLWGRGTLVSVSS
VL: EIVLTQSPATLSLSPGERATLSCRASQSVSSYLAWYQQKPGQAPRLLIYDASKRATGIPARFSGSGSGTDFTLTISSLEPEDFAVYYCQQRSKWPPWTFGQGTKVESKR
notes: Human IgG1/kappa antibody described in WO 2005/005635; also called <IGF-1R> wildtype antibody; original wildtype <IGF-1R> antibody
- binding result [2]: no binding
